Where a chain is given by its changes, count along the chain named. Where two headings read alike, the source gives them in different places. No end group written: not given here. *: point of attachment. Biotin = O=C1N[C@H]2[C@H](CS[C@H]2CCCCC(=O)*)N1
T1: PDZ domain of wild type human PALS1 protein (human, UniProt Q8N3R9 256-336)
T1 sequence: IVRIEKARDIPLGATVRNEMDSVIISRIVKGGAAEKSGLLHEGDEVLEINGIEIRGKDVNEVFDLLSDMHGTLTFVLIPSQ

B1: CRB1 C-terminal tetradecapeptide (endogenous PALS1 ligand) (peptide)
peptide: Biotin-MWNLMPPPAMERLI
B2: [change] variant of the PDZ domain of PALS1 (domain or fragment)
chain: T1 sequence with F63W

Assays:
Experiment in all cases: SPR
[1] = target: T1, PDZ domain of wild type human PALS1 …
[2] = target: B1
[3] = target: T1, PDZ domain of wild type human PALS1 …; remark: listed apart in the source

Binder B1 has a Kd [1] of 5.11 µM.

Binder B2 has a Kd [2] of 18 µM.

KNLNSSEGVPDLLV [SARS-CoV-1 envelope E protein C-terminal tetradecapeptide] was tested, and the Kd [3] was > 500 µM.

Biotin-VKNLNSSRVPDLLV [SARS-CoV-2 envelope E protein C-terminal tetradecapeptide] gave a Kd [3] of 63 µM.
